From patent US20200209227A1 come the findings set out here.

The target in assay [1] is Calmodulin. Nature of the assay: BSI, free-solution binding signal.
The target in assay [2] is Calmodulin. Nature of the assay: BSI, calmodulin-calcineurin assay, free solution.
The target in assay [3] is Calmodulin. Kind of assay: BSI; molar refractometry from the experimental phase shift at Bmax.
Assay [4] has as its target Calmodulin. Kind of assay: BSI; molar refractometry; row repeated for a second PDB structure used in the model.
Assay [5] addresses Calmodulin. Kind of assay: BSI, free-solution binding signal; row repeated for a second PDB structure used in the model.

For Calcineurin (enzyme), the BSI ΔRIU with Calmodulin [1] and in the assay with Calmodulin [5] was 0.00049 RIU throughout. Besides, the FreeSRF (binding) signal ΔRIU in the assay with Calmodulin [2] came to 0.000441 RIU. The Experimental Chi (RIU/M) with Calmodulin [3] and in the assay with Calmodulin [4] was 46100 RIU/M throughout.
